Assay [1] has as its target T1, F protein of RSV (Long strain) (RSV (Long strain), UniProt P12568 26-574). Briefly: cell-based or functional assay.
Assay [2] has as its target T2, RSV F glycoprotein (NUF4) (respiratory syncytial virus).
T2 chain 1: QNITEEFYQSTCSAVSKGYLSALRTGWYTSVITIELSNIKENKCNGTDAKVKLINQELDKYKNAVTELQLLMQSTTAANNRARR
T2 chain 2: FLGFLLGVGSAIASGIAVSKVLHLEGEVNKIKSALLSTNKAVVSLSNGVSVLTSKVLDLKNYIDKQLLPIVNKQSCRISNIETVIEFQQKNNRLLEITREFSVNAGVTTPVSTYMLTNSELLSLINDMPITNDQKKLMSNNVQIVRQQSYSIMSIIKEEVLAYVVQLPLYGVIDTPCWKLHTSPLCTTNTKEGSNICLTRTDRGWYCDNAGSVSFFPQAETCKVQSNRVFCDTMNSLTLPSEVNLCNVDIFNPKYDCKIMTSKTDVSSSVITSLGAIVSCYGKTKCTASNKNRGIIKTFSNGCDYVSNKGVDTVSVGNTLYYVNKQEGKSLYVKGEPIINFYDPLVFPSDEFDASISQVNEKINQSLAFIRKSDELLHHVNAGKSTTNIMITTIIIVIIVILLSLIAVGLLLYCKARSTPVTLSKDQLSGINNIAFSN
Kind of assay: ITC, NUF4 titrated into antibody, 35 C. In general terms: ITC needs no label: the signal is the heat of the interaction.
Description: The binding thermodynamics of the antibodies were determined from ITC measurements using a Microcal, Inc. VP Titration Calorimeter. The VP titration calorimeter consists of a matched pair of sample and reference vessels (1.409 ml) enclosed in an adiabatic enclosure and a rotating stirrer-syringe for titrating ligand solutions into the sample vessel. The ITC measurements were performed at 25° C. and 35° C. The sample vessel contained the antibody in the phosphate buffer while the reference vessel contained just the buffer solution. The phosphate buffer solution was saline 67 mM PO₄ at pH 7.4 from HyClone, Inc. Five or ten μl aliquots of the 0.05 to 0.1 mM NUF4 solution were titrated 3 to 4 minutes apart into the antibody sample solution until the binding was saturated as evident by the lack of a heat exchange signal. […] This was attributed to a heat of dilution of the NUF4 titrant and was subtracted from the titrant heats obtained during the titration prior to analysis of the data.
A non-linear, least square minimization software program from Microcal, Inc., Origin 5.0, was used to fit the incremental heat of the ith titration (ΔQ (i)) of the total heat, Qₜ, to the total titrant concentration, Xₜ, according to the following equations (I),

A further assay addresses Bac-F (respiratory syncytial virus). Briefly: SPR (BIAcore), mAb vs Bac-F (1:1).
The target of assay [3] is T1, F protein of RSV (Long strain). Kind of assay: cell-based or functional assay. The source holds these as a separate data set.
The target in assay [4] is T2, RSV F glycoprotein (NUF4). Kind of assay: SPR (BIAcore), mAb vs NUF4 (1:1). (In SPR one partner is held on a chip, and binding of the other changes the refractive index at the surface.)
In assay [5] the target is T2, RSV F glycoprotein (NUF4). Briefly: SPR (BIAcore), mAb vs NUF4 (2:1).
Assay [6] concerns the target T3, recombinant C-terminally truncated RSV (A2 strain) F protein (RSV (A2 strain), UniProt P03420 26-524).
T3 construct: extracellular domain; also called truncated F protein; extracellular domain of the F protein from RSV A2
Briefly: SPR (BIAcore), IgG over immobilised F.

For assay [7], the target named is T1, F protein of RSV (Long strain). Briefly: cell-based or functional assay. This is another data set of the same source.
For assay [8], the target named is T3, recombinant C-terminally truncated RSV …. Briefly: SPR (BIAcore), IgG over immobilised F. The source holds these as a separate data set.
The target of another assay is RSV F protein (purified) (respiratory syncytial virus). Briefly: SPR (BIAcore), F protein immobilised.
Assay [9] deals with T3, recombinant C-terminally truncated RSV …. Kind of assay: SPR (BIAcore), Fab over immobilised F.
The target of assay [10] is T1, F protein of RSV (Long strain). Briefly: cell-based or functional assay. This is another data set of the same source.
Assay [11] addresses T3, recombinant C-terminally truncated RSV …. Kind of assay: SPR (BIAcore), Fab over immobilised F. The source holds these as a separate data set.
Assay [12] shares this target. Kind of assay: SPR (BIAcore), Fab over immobilised F. The source holds these as a separate data set.

Where “and” joins values, the source holds several entries; their conditions need not be identical. Identical values can stand only once. Like-named read-outs stand apart in the source and are kept apart here.

B1: A13c4 IgG (antibody, V domains shown)
VH: QVTLRESGPALVKPTQTLTLTCTFSGFSLSTAGMSVGWIRQPPGKALEWLADIWWDGKKSYNPSLKDRLTISKDTSKNQVVLKVTNMDPADTATYYCARDMIFNFYFDVWGQGTTVTVSS
VL: DIQMTQSPSTLSASVGDRVTITCSLSSRVGYMHWYQQKPGKAPKLLIYDTMYQSSGVPSRFSGSGSGTEFTLTISSLQPDDFATYYCFQGSGYPFTFGGGTKVEIKR
What is called Kd is the free concentration of one partner at which half of the binding sites on the other are occupied at equilibrium, for simple one-to-one binding. The term koff denotes a measure of how fast the partners let go of each other. Usually kon stands for a measure of how fast the partners come together. For the molecule B1, in assay [1], the “Mean IC50 (Control)” value turned out to be 0.0375 µg/mL and the “Mean IC50 (Curve)” value is 0.0376 µg/mL. In assay [2], this molecule registered a Ka of 1.07e+08 M⁻¹, a Kd of 9000 pM and a ΔHb of 16 kcal/mol. For the same molecule, in the assay with Bac-F, the Kd is 130 pM and the “fold in parentheses (palivizumab = 1)” value was 30 fold. In assay [3], the “Microneutralization IC50, IgG” value is 0.0376 µg/ml and 0.25 nM. Moreover, in assay [4], binding was put at a Kd of 750 pM, the “fold in parentheses (palivizumab = 1)” value was found to be 12 fold, the koff came to 0.000272 s⁻¹ and the kon worked out at 365000 M⁻¹ s⁻¹. In [5], the Kd was 700 pM, the “fold in parentheses (palivizumab = 1)” value turned out to be 446 fold, the koff amounted to 0.000225 s⁻¹ and the kon is 320000 M⁻¹ s⁻¹. For the same molecule, in assay [6], the Kd is 132 pM, the koff stood at 3.96e-05 s⁻¹ and the kon amounted to 300000 M⁻¹ s⁻¹.

B2: AFFG IgG (antibody, name in Kabat numbering, V domains shown)
VH: QVTLRESGPALVKPTQTLTLTCTFSGFSLSTAGMSVGWIRQPPGKALEWLADIWWDDKKDYNPSLKSRLTISKDTSKNQVVLKVTNMDPADTATYYCARSMITNFYFDVWGQGTTVTVSS
VL: DIQMTQSPSTLSASVGDRVTITCSASSSVGYMHWYQQKPGKAPKLLIYDTFKLASGVPSRFSGSGSGTEFTLTISSLQPDDFATYYCFQGSGYPFTFGGGTKVEIK
As for B2, in assay [7], the “Microneutralization IC50, IgG” value is 0.453 µg/ml and 3.02 nM. In addition, in assay [8], the koff was at most 5e-06 s⁻¹ and the kon was 147000 M⁻¹ s⁻¹.

B3: AFFY IgG (antibody, name in Kabat numbering, V domains shown)
VH: QVTLRESGPALVKPTQTLTLTCTFSGFSLSTAGMSVGWIRQPPGKALEWLADIWWDDKKDYNPSLKSRLTISKDTSKNQVVLKVTNMDPADTATYYCARSMITNFYFDVWGQGTTVTVSS
VL: DIQMTQSPSTLSASVGDRVTITCSASSSVGYMHWYQQKPGKAPKLLIYDTFKLASGVPSRFSGSGSGTEFTLTISSLQPDDFATYYCFQGSYYPFTFGGGTKVEIK
In the case of B3, the “Microneutralization IC50, IgG” value in [7] was 0.407 µg/ml and 2.71 nM. In assay [8], the koff was at most 5e-06 s⁻¹ and the kon came out at 144000 M⁻¹ s⁻¹.

B4: AFFF(1) IgG (antibody, V domains shown)
VH: QVTLRESGPALVKPTQTLTLTCTFSGFSLSTAGMSVGWIRQPPGKALEWLADIWWDDKKDYNPSLKSRLTISKDTSKNQVVLKVTNMDPADTATYYCARSMITNFYFDVWGQGTTVTVSS
VL: DIQMTQSPSTLSASVGDRVTITCSASSSVGYMHWYQQKPGKAPKLLIYDTFKLASGVPSRFSGSGSGTEFTLTISSLQPDDFATYYCFQGSFYPFTFGGGTKVEIKR
Consider B4, for which the “Microneutralization IC50, IgG” value in assay [7] is 0.306 µg/ml and 2.04 nM; in [3] it was 2.04 nM and 0.306 µg/ml. Also, the koff was at most 5e-06 s⁻¹ in assay [8]; 0.000274 s⁻¹ and 0.000266 s⁻¹ and 0.000206 s⁻¹ with RSV F protein (purified); at most 5e-06 s⁻¹ in [6]. The kon in [8] is 127000 M⁻¹ s⁻¹; with RSV F protein (purified) it was 108000 M⁻¹ s⁻¹ and 96000 M⁻¹ s⁻¹ and 124000 M⁻¹ s⁻¹; in assay [6] it was 127000 M⁻¹ s⁻¹. For the same molecule, in assay [6], the Kd was at most 39 pM.

B5: A1e9 Fab (Fab, V domains shown)
VH: QVTLRESGPALVKPTQTLTLTCTFSGFSLSTAGMSVGWIRQPPGKALEWLADIWWDGKKHYNPSLKDRLTISKDTSKNQVVLKVTNMDPADTATYYCARDMIFNWYFDVWGQGTTVTVSS
VL: DIQMTQSPSTLSASVGDRVTITCSLSSRVGYMHWYQQKPGKAPKLLIYDTFKLSSGVPSRFSGSGSGTEFTLTISSLQPDDFATYYCFQGSGYPFTFGGGTKVEIK
notes: also called Ale9
What is called IC50 is the concentration that inhibits the measured activity by half. A high value points to a need for much substance. As to B5, in [9], the Kd came out at 216 pM, the koff came out at 0.000113 s⁻¹ and the kon turned out to be 523000 M⁻¹ s⁻¹. Moreover, in assay [1], the “Mean IC50 (Control)” value came out at 0.125 µg/mL and the “Mean IC50 (Curve)” value worked out at 0.157 µg/mL. In [3], the “Microneutralization IC50, Fab” value is 0.157 µg/ml and 3.14 nM. Besides, in the assay with RSV F protein (purified), the koff was found to be 0.000453 s⁻¹ and the kon came to 790000 M⁻¹ s⁻¹. Moreover, the “IC50” value in [10] stood at 2500 pM.

B6: AFSF IgG (antibody, name in Kabat numbering, V domains shown)
VH: QVTLRESGPALVKPTQTLTLTCTFSGFSLSTAGMSVGWIRQPPGKALEWLADIWWDDKKDYNPSLKSRLTISKDTSKNQVVLKVTNMDPADTATYYCARSMITNFYFDVWGQGTTVTVSS
VL: DIQMTQSPSTLSASVGDRVTITCSASSSVGYMHWYQQKPGKAPKLLIYDTSKLASGVPSRFSGSGSGTEFTLTISSLQPDDFATYYCFQGSFYPFTFGGGTKVEIK
As to B6, the “Microneutralization IC50, IgG” value in assay [7] was 0.521 µg/ml and 3.47 nM. Moreover, in [8], the koff was at most 5e-06 s⁻¹ and the kon is 147000 M⁻¹ s⁻¹.

B7: P11d4 Fab (Fab, V domains shown)
VH: QVTLRESGPALVKPTQTLTLTCTFSGFSLSTPGMSVGWIRQPPGKALEWLADIWWDGKKHYNPSLKDRLTISKDTSKNQVVLKVTNMDPADTATYYCARDMIFNWYFDVWGQGTTVTVSS
VL: DIQMTQSPSTLSASVGDRVTITCSPSSRVGYMHWYQQKPGKAPKLLIYDTMRLASGVPSRFSGSGSGTEFTLTISSLQPDDFATYYCFQGSGYPFTFGGGTKVEIK
Regarding B7, in assay [9], the Kd was 682 pM, the koff worked out at 0.000389 s⁻¹ and the kon is 570000 M⁻¹ s⁻¹. Also, in assay [1], the “Mean IC50 (Control)” value is above 1 µg/mL and the “Mean IC50 (Curve)” value is above 1 µg/mL. Further, in the assay with RSV F protein (purified), the dissociation rate constant (koff) came out at 0.000717 s⁻¹; the on-rate constant (kon) was 570000 M⁻¹ s⁻¹ and 572000 M⁻¹ s⁻¹. The “IC50” value in assay [10] was above 20000 pM.

B8: AFFF(1) Fab (Fab, V domains shown)
VH: QVTLRESGPALVKPTQTLTLTCTFSGFSLSTAGMSVGWIRQPPGKALEWLADIWWDDKKDYNPSLKSRLTISKDTSKNQVVLKVTNMDPADTATYYCARSMITNFYFDVWGQGTTVTVSS
VL: DIQMTQSPSTLSASVGDRVTITCSASSSVGYMHWYQQKPGKAPKLLIYDTFKLASGVPSRFSGSGSGTEFTLTISSLQPDDFATYYCFQGSFYPFTFGGGTKVEIK
notes: also called AHH(1)
On to B8, for which the Kd in [9] and in assay [11] was at most 37 pM in each case. The koff is at most 5e-06 s⁻¹ in assay [9]; at most 5e-06 s⁻¹ in [11]; 0.000245 s⁻¹ and 0.000446 s⁻¹ and 0.000268 s⁻¹ in the assay with RSV F protein (purified). Also, the kon in assay [9] was 134000 M⁻¹ s⁻¹; in assay [11] it was 134000 M⁻¹ s⁻¹; in the assay with RSV F protein (purified), 212000 M⁻¹ s⁻¹ and 156000 M⁻¹ s⁻¹ and 186000 M⁻¹ s⁻¹. In addition, the “Microneutralization IC50, Fab” value in [7] is 0.0715 µg/ml and 1.43 nM; in assay [3], 0.0715 µg/ml and 1.43 nM. In addition, in [12], the “fold higher affinity than palivizumab Fab” value is above 117 fold.

B9: A17d4(1) IgG (antibody, V domains shown)
VH: QVTLRESGPALVKPTQTLTLTCTFSGFSLSTAGMSVGWIRQPPGKALEWLADIWWDGKKSYNPSLKDRLTISKDTSKNQVVLKVTNMDPADTATYYCARDMIFNFYFDVWGQGTTVTVSS
VL: DIQMTQSPSTLSASVGDRVTITCLPSSRVGYMHWYQQKPGKAPKLLIYDTMYQSSGVPSRFSGSGSGTEFTLTISSLQPDDFATYYCFQGSGYPFTFGGGTKVEIKR
Take B9: in [1], the “Mean IC50 (Control)” value came out at 0.0354 µg/mL and the “Mean IC50 (Curve)” value turned out to be 0.0342 µg/mL. In assay [2], this molecule came in with a Ka of 7.5e+07 M⁻¹, a Kd of 13000 pM and a ΔHb of 16.3 kcal/mol. In the assay with Bac-F, the affinity, expressed as Kd, was 90 pM and the “fold in parentheses (palivizumab = 1)” value was 43 fold. Further, the “Microneutralization IC50, IgG” value in assay [3] is 0.0342 µg/ml and 0.23 nM. In assay [4], the Kd is 730 pM, the “fold in parentheses (palivizumab = 1)” value is 12 fold, the off-rate constant (koff) amounted to 0.000362 s⁻¹ and the kon was determined as 499000 M⁻¹ s⁻¹. In addition, in assay [5], the Kd came out at 1110 pM, the “fold in parentheses (palivizumab = 1)” value turned out to be 281 fold, the koff was 0.000292 s⁻¹ and the kon was 264000 M⁻¹ s⁻¹. Also, in [6], the dissociation constant Kd is 89 pM, the koff was 4.07e-05 s⁻¹ and the kon is 456000 M⁻¹ s⁻¹.

For the origin of these results see US20110158985A1 (published 2011).
